Reference: patent US20100081621

Target: APOBEC3G D316R/D317R D316R,D317R (Homo sapiens) (UniProt Q9HC16)
Settings: deamination; middle and 3' C deaminated at about same rate

Sequence of APOBEC3G D316R/D317R D316R,D317R (Homo sapiens) (Q9HC16 whole entry D316R/D317R): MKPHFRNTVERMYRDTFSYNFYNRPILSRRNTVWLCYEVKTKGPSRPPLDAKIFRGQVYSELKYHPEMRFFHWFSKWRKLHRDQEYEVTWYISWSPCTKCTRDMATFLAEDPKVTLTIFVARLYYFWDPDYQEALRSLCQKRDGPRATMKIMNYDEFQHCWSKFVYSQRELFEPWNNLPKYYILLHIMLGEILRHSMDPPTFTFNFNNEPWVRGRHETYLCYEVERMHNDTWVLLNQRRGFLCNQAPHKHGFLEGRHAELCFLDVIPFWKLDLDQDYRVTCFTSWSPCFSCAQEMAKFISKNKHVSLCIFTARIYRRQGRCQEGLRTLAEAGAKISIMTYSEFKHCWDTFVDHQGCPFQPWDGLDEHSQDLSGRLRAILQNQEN

Question: For “FdT ssDNA deamination substrate with CCC motif”, which activity is on record?
Answer: 1.6 fold of wt
